Laboratory results from PMC10540216, “Activity Guided Azide-methyllysine Photo-trapping for Substrate Profiling of Lysine Demethylases” (Journal of the American Chemical Society, 2023).
Entries after “also recorded” stand apart in the source; their conditions may differ.

Tests used:
[1] = test system: eIF4A3 trimethylation in HEK293T cells; assay: Immunoprecipitation of eIF4A3 from HEK293T cells and Kme3 immunoblot; assay type: cell-based, human; settings: eIF4A3 IP, pan-Kme3 immunoblot, vs control vector or control siRNA
CBX1-eIF4A3 interaction [2] = assay: Interactome pull-down of eIF4A3 using recombinant CBX1 from HEK293T nuclear extracts; assay type: cell-based, human; settings: 6xHis CBX1, Ni-NTA beads
CBX1-eIF4A3 interaction [3] = assay: Immunoprecipitation using CBX1 antibody from HEK293T cells, eIF4A3 immunoblot; assay type: cell-based, human; settings: vs control vector
Description: concentration. The samples were then heated to 65°C for 15 minutes and loaded into a 4-12% polyacrylamide gel for Western blotting.
22. Immunoprecipitation using eIF4A3 and CBX1 antibodies […]
Then 4 mg of nuclear extracts were added and left mixing overnight at 4°C. The following day, the beads were pelleted, and the supernatant was removed.
The beads were washed twice with 50 mM Tris pH 7.5, 100 mM KCl, 0.1% Triton X. Laemmli dye (4X) was added to “elution buffer” from the Protein A Dynabead kit for a final 1X concentration. Each sample received 60 µL of the denaturing elution solution and was then incubated at 65°C for 15 minutes. The beads were pelleted on the magnetic rack and the supernatants were collected to perform Western blots. […]
Each microcentrifuge tube received an CBX1 antibody mixture containing 10 µL antibody (ProteinTech cat. # 10241-2-AP). The antibodies […]
were incubated with the beads using gentle agitation for 1 hour at 4°C. The beads were then washed 2x with conjugation buffer (200 µl of 20 mM sodium phosphate, 0.15M NaCl). BS3 crosslinking solution (250 µl of 5 mM BS3 in conjugation buffer) was added to each aliquot and incubated at room temperature for 20 minutes. The supernatant was removed and a second round of BS3 solution was administered for 5 minutes at room temperature. […]

KDM4A-I71AzF = assay: CASI: photo-crosslinking with HEK293T cell extracts, StrepTactin enrichment and LC-MS/MS proteomics; assay type: binding, human; settings: sheet "Final results but with 0.01";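 further: lysates from HEK293T cells pretreated with a KDM4 inhibitor to raise proteome methylation, affinity-purified after ±UV, gel-resolved, trypsin-digested, with exclusive unique peptides per protein averaged per condition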

B1: KDM4A: full-length wild-type KDM4A overexpressed in HEK293T cells (protein, UniProt O75164 1-1064, looked up)
chain: MASESETLNPSARIMTFYPTMEEFRNFSRYIAYIESQGAHRAGLAKVVPPKEWKPRASYDDIDDLVIPAPIQQLVTGQSGLFTQYNIQKKAMTVREFRKIANSDKYCTPRYSEFEELERKYWKNLTFNPPIYGADVNGTLYEKHVDEWNIGRLRTILDLVEKESGITIEGVNTPYLYFGMWKTSFAWHTEDMDLYSINYLHFGEPKSWYSVPPEHGKRLERLAKGFFPGSAQSCEAFLRHKMTLISPLMLKKYGIPFDKVTQEAGEFMITFPYGYHAGFNHGFNCAESTNFATRRWIEYGKQAVLCSCRKDMVKISMDVFVRKFQPERYKLWKAGKDNTVIDHTLPTPEAAEFLKESELPPRAGNEEECPEEDMEGVEDGEEGDLKTSLAKHRIGTKRHRVCLEIPQEVSQSELFPKEDLSSEQYEMTECPAALAPVRPTHSSVRQVEDGLTFPDYSDSTEVKFEELKNVKLEEEDEEEEQAAAALDLSVNPASVGGRLVFSGSKKKSSSSLGSGSSRDSISSDSETSEPLSCRAQGQTGVLTVHSYAKGDGRVTVGEPCTRKKGSAARSFSERELAEVADEYMFSLEENKKSKGRRQPLSKLPRHHPLVLQECVSDDETSEQLTPEEEAEETEAWAKPLSQLWQNRPPNFEAEKEFNETMAQQAPHCAVCMIFQTYHQVEFGGFNQNCGNASDLAPQKQRTKPLIPEMCFTSTGCSTDINLSTPYLEEDGTSILVSCKKCSVRVHASCYGVPPAKASEDWMCSRCSANALEEDCCLCSLRGGALQRANDDRWVHVSCAVAILEARFVNIAERSPVDVSKIPLPRFKLKCIFCKKRRKRTAGCCVQCSHGRCPTAFHVSCAQAAGVMMQPDDWPFVVFITCFRHKIPNLERAKGALQSITAGQKVISKHKNGRFYQCEVVRLTTETFYEVNFDDGSFSDNLYPEDIVSQDCLQFGPPAEGEVVQVRWTDGQVYGAKFVASHPIQMYQVEFEDGSQLVVKRDDVYTLDEELPKRVKSRLSVASDMRFNEIFTEKEVKQEKKRQRVINSRYREDYIEPALYRAIME
modifications: full-length
[1]
  eIF4A3 Kme3 level: significantly reduced the Kme3 level; also recorded: robustly deceases eIF4A3 methylation; also recorded: robust eIF4A3 demethylation
CBX1-eIF4A3 interaction [2]
  eIF4A3 enrichment by recombinant CBX1 pull-down: decreased the association
CBX1-eIF4A3 interaction [3]
  eIF4A3 enrichment by endogenous CBX1 (IP): decreased in KDM4A-transfected cells; also recorded: reduced it compared to control vector-transfected cells

B2: NU155_HUMAN (protein, UniProt O75694 2-1391, looked up)
Nuclear pore complex protein …: PSSLLGAAMPASTSAAALQEALENAGRLIDRQLQEDRMYPDLSELLMVSAPNNPTVSGMSDMDYPLQGPGLLSVPNLPEISSIRRVPLPPELVEQFGHMQCNCMMGVFPPISRAWLTIDSDIFMWNYEDGGDLAYFDGLSETILAVGLVKPKAGIFQPHVRHLLVLATPVDIVILGLSYANLQTGSGVLNDSLSGGMQLLPDPLYSLPTDNTYLLTITSTDNGRIFLAGKDGCLYEVAYQAEAGWFSQRCRKINHSKSSLSFLVPSLLQFTFSEDDPILQIAIDNSRNILYTRSEKGVIQVYDLGQDGQGMSRVASVSQNAIVSAAGNIARTIDRSVFKPIVQIAVIENSESLDCQLLAVTHAGVRLYFSTCPFRQPLARPNTLTLVHVRLPPGFSASSTVEKPSKVHRALYSKGILLMAASENEDNDILWCVNHDTFPFQKPMMETQMTAGVDGHSWALSAIDELKVDKIITPLNKDHIPITDSPVVVQQHMLPPKKFVLLSAQGSLMFHKLRPVDQLRHLLVSNVGGDGEEIERFFKLHQEDQACATCLILACSTAACDREVSAWATRAFFRYGGEAQMRFPTTLPPPSNVGPILGSPVYSSSPVPSGSPYPNPSFLGTPSHGIQPPAMSTPVCALGNPATQATNMSCVTGPEIVYSGKHNGICIYFSRIMGNIWDASLVVERIFKSGNREITAIESSVPCQLLESVLQELKGLQEFLDRNSQFAGGPLGNPNTTAKVQQRLIGFMRPENGNPQQMQQELQRKFHEAQLSEKISLQAIQQLVRKSYQALALWKLLCEHQFTIIVAELQKELQEQLKITTFKDLVIRDKELTGALIASLINCYIRDNAAVDGISLHLQDICPLLYSTDDAICSKANELLQRSRQVQNKTEKERMLRESLKEYQKISNQVDLSNVCAQYRQVRFYEGVVELSLTAAEKKDPQGLGLHFYKHGEPEEDIVGLQAFQERLNSYKCITDTLQELVNQSKAAPQSPSVPKKPGPPVLSSDPNMLSNEEAGHHFEQMLKLSQRSKDELFSIALYNWLIQVDLADKLLQVASPFLEPHLVRMAKVDQNRVRYMDLLWRYYEKNRSFSNAARVLSRLADMHSTEISLQQRLEYIARAILSAKSSTAISSIAADGEFLHELEEKMEVARIQLQIQETLQRQYSHHSSVQDAVSQLDSELMDITKLYGEFADPFKLAECKLAIIHCAGYSDPILVQTLWQDIIEKELSDSVTLSSSDRMHALSLKIVLLGKIYAGTPRFFPLDFIVQFLEQQVCTLNWDVGFVIQTMNEIGVPLPRLLEVYDQLFKSRDPFWNRMKKPLHLLDCIHVLLIRYVENPSQVLNCERRRFTNLCLDAVCGYLVELQSMSSSVAVQAITGNFKSLQAKLERLH
KDM4A-I71AzF
  Fold change (+UV/-UV): 1.36

B3: G9a: full-length G9a methyltransferase expressed in HEK293T cells (protein, UniProt Q96KQ7 1-1210, looked up)
chain: MAAAAGAAAAAAAEGEAPAEMGALLLEKETRGATERVHGSLGDTPRSEETLPKATPDSLEPAGPSSPASVTVTVGDEGADTPVGATPLIGDESENLEGDGDLRGGRILLGHATKSFPSSPSKGGSCPSRAKMSMTGAGKSPPSVQSLAMRLLSMPGAQGAAAAGSEPPPATTSPEGQPKVHRARKTMSKPGNGQPPVPEKRPPEIQHFRMSDDVHSLGKVTSDLAKRRKLNSGGGLSEELGSARRSGEVTLTKGDPGSLEEWETVVGDDFSLYYDSYSVDERVDSDSKSEVEALTEQLSEEEEEEEEEEEEEEEEEEEEEEEEDEESGNQSDRSGSSGRRKAKKKWRKDSPWVKPSRKRRKREPPRAKEPRGVNGVGSSGPSEYMEVPLGSLELPSEGTLSPNHAGVSNDTSSLETERGFEELPLCSCRMEAPKIDRISERAGHKCMATESVDGELSGCNAAILKRETMRPSSRVALMVLCETHRARMVKHHCCPGCGYFCTAGTFLECHPDFRVAHRFHKACVSQLNGMVFCPHCGEDASEAQEVTIPRGDGVTPPAGTAAPAPPPLSQDVPGRADTSQPSARMRGHGEPRRPPCDPLADTIDSSGPSLTLPNGGCLSAVGLPLGPGREALEKALVIQESERRKKLRFHPRQLYLSVKQGELQKVILMLLDNLDPNFQSDQQSKRTPLHAAAQKGSVEICHVLLQAGANINAVDKQQRTPLMEAVVNNHLEVARYMVQRGGCVYSKEEDGSTCLHHAAKIGNLEMVSLLLSTGQVDVNAQDSGGWTPIIWAAEHKHIEVIRMLLTRGADVTLTDNEENICLHWASFTGSAAIAEVLLNARCDLHAVNYHGDTPLHIAARESYHDCVLLFLSRGANPELRNKEGDTAWDLTPERSDVWFALQLNRKLRLGVGNRAIRTEKIICRDVARGYENVPIPCVNGVDGEPCPEDYKYISENCETSTMNIDRNITHLQHCTCVDDCSSSNCLCGQLSIRCWYDKDGRLLQEFNKIEPPLIFECNQACSCWRNCKNRVVQSGIKVRLQLYRTAKMGWGVRALQTIPQGTFICEYVGELISDAEADVREDDSYLFDLDNKDGEVYCIDARYYGNISRFINHLCDPNIIPVRVFMLHQDLRFPRIAFFSSRDIRTGEELGFDYGDRFWDIKSKYFTCQCGSEKCKHSAEAIALEQSRLARLDPHPELLPELGSLPPVNT
modifications: full-length
notes: full-length G9a methyltransferase expressed in HEK293T cells
[1]
  eIF4A3 Kme3 level: increased Kme3 compared to the control vector; also recorded: considerable increase in Kme3 on eIF4A3
CBX1-eIF4A3 interaction [2]
  eIF4A3 enrichment by recombinant CBX1 pull-down: maximum enrichment of eIF4A3
CBX1-eIF4A3 interaction [3]
  eIF4A3 enrichment by endogenous CBX1 (IP): increased in G9a-transfected cells; also recorded: robust enrichment of eIF4A3 by CBX1
